The source of these data is PMC11420289, “IBR1, a novel endogenous IFIH1‐binding dsRNA, governs IFIH1 activation and M1 macrophage polarisation in ARDS”.

The target of the series is T1, IFIH1-WT-Flag (UniProt Q8R5F7 1-1025).
T1 sequence: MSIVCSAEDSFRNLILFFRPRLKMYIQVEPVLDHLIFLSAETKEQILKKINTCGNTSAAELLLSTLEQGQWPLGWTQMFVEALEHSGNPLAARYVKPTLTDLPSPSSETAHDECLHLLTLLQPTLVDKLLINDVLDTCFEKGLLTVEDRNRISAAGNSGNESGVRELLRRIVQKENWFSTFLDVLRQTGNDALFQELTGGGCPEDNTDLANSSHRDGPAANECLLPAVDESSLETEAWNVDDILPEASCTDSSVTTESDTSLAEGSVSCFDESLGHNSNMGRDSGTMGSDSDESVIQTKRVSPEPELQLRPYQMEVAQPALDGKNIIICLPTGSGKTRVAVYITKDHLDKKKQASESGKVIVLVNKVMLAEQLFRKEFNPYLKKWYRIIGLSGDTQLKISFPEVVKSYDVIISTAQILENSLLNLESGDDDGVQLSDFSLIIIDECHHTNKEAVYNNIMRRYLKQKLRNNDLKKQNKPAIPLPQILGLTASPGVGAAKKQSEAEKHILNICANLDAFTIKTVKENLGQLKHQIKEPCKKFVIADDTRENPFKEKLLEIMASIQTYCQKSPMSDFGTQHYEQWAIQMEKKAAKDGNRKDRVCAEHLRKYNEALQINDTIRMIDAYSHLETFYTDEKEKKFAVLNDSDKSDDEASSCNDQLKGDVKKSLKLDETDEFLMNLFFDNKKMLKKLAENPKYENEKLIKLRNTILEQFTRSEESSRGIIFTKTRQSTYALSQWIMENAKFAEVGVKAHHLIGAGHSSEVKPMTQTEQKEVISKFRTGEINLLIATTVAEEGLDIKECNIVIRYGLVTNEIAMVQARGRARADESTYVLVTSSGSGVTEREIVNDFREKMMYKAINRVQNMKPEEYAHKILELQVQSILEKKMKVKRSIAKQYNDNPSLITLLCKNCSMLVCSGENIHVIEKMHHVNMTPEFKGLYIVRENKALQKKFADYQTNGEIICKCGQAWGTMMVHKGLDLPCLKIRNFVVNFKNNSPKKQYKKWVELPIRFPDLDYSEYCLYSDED
Briefly: competition; EMSA, 50 pmol cold RNA vs biotin-IBR1-WT; EMSA: 20 mM HEPES pH 7.5, 150 mM NaCl, 1.5 mM MgCl2, 2 mM DTT, 2 mM ADPCP (so in the source), 10 min at room temperature, BisTris native gel. The settings on record: protein: recombinant; tags: Flag; His. In general terms: In EMSA bound probe runs differently from free probe, usually more slowly.

B1: IBR1-M2 (ssRNA)
RNA: UGUAUUUUCUCCUUAUAAUCACUCCCUCCCGGGGCAUGUAAUUAAUUUCCUGAUGGAUUACUCACACGGUCUUGAAGAUGCAAUGUCAGCUAUUUAGGCUGUGCUAGGACUCAAUUACAACAACAUAUGCAUUAAGACAGGAACUGGCAAGCCGGGACUACAGCAACUACAGGGCUGGUGCUUCCCAACCGCUGGGCUAUAAUCUAUGAAACUGAGCCGGGAUCCAGCCAAUCAGUUAGCUAGCUCCUCAUAACAGGUCUAACUGGCUCUGGACAGCUAAGGGCUGCGCUGGAAC
B1: the binding result is on record as “no binding”.
The value for GUUCCAGCGCAGCCCUUA (ssRNA) [IBR1-M3] was “no binding”.
